T1: cynomolgus monkey FcγRIIb extracellular domain with C-terminal His-tag (cynomolgus monkey)
T1 construct: also called cyno FcγRIIb; cynoFcγRIIb
T1 chain: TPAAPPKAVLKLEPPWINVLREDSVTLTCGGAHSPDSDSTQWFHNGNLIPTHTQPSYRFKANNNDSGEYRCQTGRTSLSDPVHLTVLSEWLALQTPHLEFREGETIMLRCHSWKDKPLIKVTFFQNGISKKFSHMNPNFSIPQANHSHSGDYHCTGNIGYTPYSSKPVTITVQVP

T2: cynomolgus monkey FcγRIIIaS extracellular domain with C-terminal His-tag (cynomolgus monkey, UniProt Q8SPW2 21-206 at identity 1.00))
T2 construct: also called cyno FcγRIIIaS; FcgRIIIaS
T2 chain: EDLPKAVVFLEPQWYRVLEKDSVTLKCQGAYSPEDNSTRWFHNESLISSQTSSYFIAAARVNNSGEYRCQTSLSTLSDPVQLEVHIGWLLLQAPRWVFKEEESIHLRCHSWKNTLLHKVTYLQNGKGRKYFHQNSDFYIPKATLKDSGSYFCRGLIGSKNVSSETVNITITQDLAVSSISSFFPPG

T3: human FcγRIIaR extracellular domain with C-terminal His-tag (human, UniProt P12318 34-217)
T3 construct: also called human FcγRIIa (type R); FcgRIIaR
T3 chain: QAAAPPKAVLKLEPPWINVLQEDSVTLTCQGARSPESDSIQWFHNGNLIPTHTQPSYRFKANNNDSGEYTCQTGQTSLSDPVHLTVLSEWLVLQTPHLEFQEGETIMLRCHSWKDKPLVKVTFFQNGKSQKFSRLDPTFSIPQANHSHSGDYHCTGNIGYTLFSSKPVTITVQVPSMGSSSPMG

T4: cynomolgus monkey FcγRIIa3 extracellular domain with C-terminal His-tag (cynomolgus monkey)
T4 construct: also called cyno FcgRIIa3; cynoFcγRIIa3; not shown: His-tag added to C-terminus
T4 chain: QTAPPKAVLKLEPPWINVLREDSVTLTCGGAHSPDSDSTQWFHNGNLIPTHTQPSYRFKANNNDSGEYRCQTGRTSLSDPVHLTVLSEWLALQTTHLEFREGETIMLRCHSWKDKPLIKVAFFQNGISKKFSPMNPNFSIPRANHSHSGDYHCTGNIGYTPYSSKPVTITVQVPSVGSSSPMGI

T5: human FcγRIIaH extracellular domain with C-terminal His-tag (human, UniProt P12318 34-217)
T5 construct: also called human FcgRIIaH; FcγRIIa (type H); not shown: His-tag added to C-terminus
T5 sequence: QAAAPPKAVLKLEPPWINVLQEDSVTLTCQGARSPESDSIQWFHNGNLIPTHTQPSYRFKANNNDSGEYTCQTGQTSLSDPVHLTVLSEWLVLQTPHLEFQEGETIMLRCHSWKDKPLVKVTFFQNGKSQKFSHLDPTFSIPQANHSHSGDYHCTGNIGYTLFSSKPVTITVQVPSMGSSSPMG

T6: human FcγRIIaR extracellular domain with C-terminal His-tag (human, UniProt P12318 34-217)
T6 construct: also called human FcgRIIaR; FcγRIIa (type R); not shown: His-tag added to C-terminus
T6 chain: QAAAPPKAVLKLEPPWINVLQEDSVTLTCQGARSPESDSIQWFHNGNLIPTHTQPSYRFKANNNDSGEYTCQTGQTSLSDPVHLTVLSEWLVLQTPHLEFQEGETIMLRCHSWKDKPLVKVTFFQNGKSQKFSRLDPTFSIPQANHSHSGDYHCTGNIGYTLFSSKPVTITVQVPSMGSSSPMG

T7: human FcγRIIb extracellular domain with C-terminal His-tag (human, UniProt P31994 43-217)
T7 construct: also called human FcgRIIb; not shown: His-tag added to C-terminus
T7 sequence: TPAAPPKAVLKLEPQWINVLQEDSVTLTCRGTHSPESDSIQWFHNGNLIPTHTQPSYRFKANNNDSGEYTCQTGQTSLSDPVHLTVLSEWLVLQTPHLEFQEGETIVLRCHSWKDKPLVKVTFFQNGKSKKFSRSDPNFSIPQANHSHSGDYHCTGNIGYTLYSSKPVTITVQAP

T8: cynomolgus monkey FcγRIIa3 extracellular domain with C-terminal His-tag (cynomolgus monkey)
T8 construct: also called cyno FcγRIIa3; FcgRIIa3
T8 chain: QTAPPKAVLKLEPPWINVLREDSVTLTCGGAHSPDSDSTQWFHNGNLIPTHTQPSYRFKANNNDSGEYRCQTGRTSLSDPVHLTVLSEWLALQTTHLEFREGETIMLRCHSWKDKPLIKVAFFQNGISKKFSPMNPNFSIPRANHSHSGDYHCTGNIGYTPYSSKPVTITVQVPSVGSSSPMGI


Assays:
[1] = molecular target: T1, cynomolgus monkey FcγRIIb extracellular …; assay: SPR; KD of SG1 / KD of variant
Protocol: (§1) The kinetic analysis of interactions between these antibodies and FcγR was carried out using BIACORE® T200 or BIACORE® 4000 (GE Healthcare). HBS-EP+ (GE Healthcare) was used as the running buffer, and the measurement temperature was set to 25° C. […] After the measurement, the antibody captured on the chip was washed off by allowing reaction with 10 mM glycine-HCl, pH1.5 and 25 mM NaOH so that the chip was regenerated and used repeatedly. The sensorgrams obtained as measurement results were analyzed by the 1:1 Langmuir binding model using the BIACORE® Evaluation Software to calculate the binding rate constant ka (L/mol/s) and dissociation rate constant kd (1/s), and the dissociation constant KD (mol/L) was calculated from these values. […] Regarding such interactions, KD values were calculated using the following 1:1 binding model described in BIACORE® T100 Software Handbook BR1006-48 Edition AE.

[2] = molecular target: T2, cynomolgus monkey FcγRIIIaS …; assay: SPR; KD of SG1 / KD of variant
Protocol: as §1

[3] = molecular target: T3, human FcγRIIaR extracellular domain …; assay: SPR; KD of SG1 / KD of variant
Protocol: as §1

[4] = molecular target: T4, cynomolgus monkey FcγRIIa3 …; assay: SPR Biacore, antibody captured, FcgR analyte
[5] = molecular target: T9, cynomolgus monkey FcγRIIIaS extracellular domain with C-terminal His-tag (cynomolgus monkey, UniProt A3RFZ7 21-206 (rhesus entry)); assay: SPR Biacore, antibody captured, FcgR analyte
T9 construct: also called cyno FcgRIIIaS; cynoFcγRIIIaS; not shown: His-tag added to C-terminus

[6] = molecular target: T5, human FcγRIIaH extracellular domain …; assay: SPR Biacore, antibody captured, FcgR analyte
[7] = molecular target: T6, human FcγRIIaR extracellular domain …; assay: SPR Biacore, antibody captured, FcgR analyte
[8] = molecular target: T7, human FcγRIIb extracellular domain with …; assay: SPR Biacore, antibody captured, FcgR analyte
[9] = molecular target: T8, cynomolgus monkey FcγRIIa3 …; assay: SPR; KD of SG1 / KD of variant
Protocol: as §1

KD fold (SG1 = 1) [1] [fold] | KD fold (SG1 = 1) [2] [fold] | KD fold (SG1 = 1) [3] [fold] | KD fold (SG1 = 1) [4] [fold] | KD fold (SG1 = 1) [5] [fold] | KD fold (SG1 = 1) [6] [fold] | KD fold (SG1 = 1) [7] [fold] | KD fold (SG1 = 1) [8] [fold] | KD fold (SG1 = 1) [9] [fold] | Binder
2.5 | 0.3 | 4.2 |  |  |  |  |  |  | M103205H795-MY309 (heavy chain) with M103202L889-SK1 (light chain) (antibody, human IgG1, kappa, name in EU numbering, Substitutions introduced into M103205H795-SG1; positions in EU numbering) heavy: QVTLKESGPVLVKPTETLTLTCTVSGIDLSHDDISWVRQAPGKGLEWVGIISYAGSTYYASWAKGRLTISKDTSKNQVVLTMTNMDPVDTATYYCARGVPAYSHGGDLWGQGTLVTVSSASTKGPSVFPLAPSSKSTSGGTAALGCLVKDYFPEPVTVSWNSGALTSGVHTFPAVLQSSGLYSLSSVVTVPSSSLGTQTYICNVNHKPSNTKVDKKVEPKSCDKTHTCPPCPAPELLTGPSVFLFPPKPKDTLMISRTPEVTCVVVDVSEEDPEVKFNWYVDGVEVHNAKTKPREEQYNSTYRVVSVLTVLHQDWLNGKEYKCKVSNKALPKPIEKTISKAKGQPREPQVYTLPPSREEMTKNQVSLTCLVKGFYPSDIAVEWESNGQPENNYKTTPMVLDSDGSFFLYSKLTVDKSRWQQGNVFSCSVMHEALHNHYTQKSLSLSP light: DIVMTQSPATLSLSPGERATLSCTSSQSVYHANWLSWFQQKPGQPPKLLIYWASTLAYGVPSRFSGSGSGTDFTLTISSLQPEDAATYYCAGGYGGGRYAFGQGTKVEIKRTVAAPSVFIFPPSDEQLKSGTASVVCLLNNFYPREAKVQWKVDNALQSGNSQESVTEQDSKDSTYSLSSTLTLSKADYEKHKVYACEVTHQGLSSPVTKSFNRGEC
 |  |  | 1 | 0.07 | 0.8 | 0.3 | 1.8 |  | M103205H795-MY289/M103202L889-SK1 (antibody, human IgG1, kappa, name in EU numbering, substitutions in EU numbering, introduced into M103205H795-SG1) heavy: QVTLKESGPVLVKPTETLTLTCTVSGIDLSHDDISWVRQAPGKGLEWVGIISYAGSTYYASWAKGRLTISKDTSKNQVVLTMTNMDPVDTATYYCARGVPAYSHGGDLWGQGTLVTVSSASTKGPSVFPLAPSSKSTSGGTAALGCLVKDYFPEPVTVSWNSGALTSGVHTFPAVLQSSGLYSLSSVVTVPSSSLGTQTYICNVNHKPSNTKVDKKVEPKSCDKTHTCPPCPAPELLNGPSVFLFPPKPKDTLMISRTPEVTCVVVDVSHEDPEVKFNWYVDGVEVHNAKTKPREEQYNSTYRVVSVLTVLHQDWLNGKEYKCKVSNKALPKPIEKTISKAKGQPREPQVYTLPPSREEMTKNQVSLTCLVKGFYPSDIAVEWESNGQPENNYKTTPMVLDSDGSFFLYSKLTVDKSRWQQGNVFSCSVMHEALHNHYTQKSLSLSP light: DIVMTQSPATLSLSPGERATLSCTSSQSVYHANWLSWFQQKPGQPPKLLIYWASTLAYGVPSRFSGSGSGTDFTLTISSLQPEDAATYYCAGGYGGGRYAFGQGTKVEIKRTVAAPSVFIFPPSDEQLKSGTASVVCLLNNFYPREAKVQWKVDNALQSGNSQESVTEQDSKDSTYSLSSTLTLSKADYEKHKVYACEVTHQGLSSPVTKSFNRGEC
0.9 | 0.15 | 1 |  |  |  |  |  | 0.8 | M103205H795-MY316 (heavy chain) with M103202L889-SK1 (light chain) (antibody, human IgG1, kappa, name in EU numbering, Substitutions introduced into M103205H795-SG1; positions in EU numbering) heavy: QVTLKESGPVLVKPTETLTLTCTVSGIDLSHDDISWVRQAPGKGLEWVGIISYAGSTYYASWAKGRLTISKDTSKNQVVLTMTNMDPVDTATYYCARGVPAYSHGGDLWGQGTLVTVSSASTKGPSVFPLAPSSKSTSGGTAALGCLVKDYFPEPVTVSWNSGALTSGVHTFPAVLQSSGLYSLSSVVTVPSSSLGTQTYICNVNHKPSNTKVDKKVEPKSCDKTHTCPPCPAPELLLGPSVFLFPPKPKDTLMISRTPEVTCVVVDVSEEDPEVKFNWYVDGVEVHNAKTKPREELYNSTYRVVSVLTVLHQDWLNGKEYKCKVSNKALPKPIEKTISKAKGQPREPQVYTLPPSREEMTKNQVSLTCLVKGFYPSDIAVEWESNGQPENNYKTTPKVLDSDGSFFLYSKLTVDKSRWQQGNVFSCSVMHEALHNHYTQKSLSLSP light: DIVMTQSPATLSLSPGERATLSCTSSQSVYHANWLSWFQQKPGQPPKLLIYWASTLAYGVPSRFSGSGSGTDFTLTISSLQPEDAATYYCAGGYGGGRYAFGQGTKVEIKRTVAAPSVFIFPPSDEQLKSGTASVVCLLNNFYPREAKVQWKVDNALQSGNSQESVTEQDSKDSTYSLSSTLTLSKADYEKHKVYACEVTHQGLSSPVTKSFNRGEC

Source: patent US20250076311A1 (Chugai, published 2025)
